Assay results published in patent publication US20150086481A1, “DIAGNOSIS AND TREATMENT OF PARKINSON'S DISEASE” (MEMORIAL SLOAN-KETTERING CANCER CENTER, priority 2011, published 2015).
Entries after “also recorded” stand apart in the source; their conditions may differ. Where no end group is shown, it is not given here.

Target: T1, GUCY2C receptor (Mus musculus, UniProt Q3UWA6)
T1 construct: from tissue; host or cells: adult mouse brain (substantia nigra mDA neurons), in vivo after tail vein injection
T1 sequence (Q3UWA6 20-1072): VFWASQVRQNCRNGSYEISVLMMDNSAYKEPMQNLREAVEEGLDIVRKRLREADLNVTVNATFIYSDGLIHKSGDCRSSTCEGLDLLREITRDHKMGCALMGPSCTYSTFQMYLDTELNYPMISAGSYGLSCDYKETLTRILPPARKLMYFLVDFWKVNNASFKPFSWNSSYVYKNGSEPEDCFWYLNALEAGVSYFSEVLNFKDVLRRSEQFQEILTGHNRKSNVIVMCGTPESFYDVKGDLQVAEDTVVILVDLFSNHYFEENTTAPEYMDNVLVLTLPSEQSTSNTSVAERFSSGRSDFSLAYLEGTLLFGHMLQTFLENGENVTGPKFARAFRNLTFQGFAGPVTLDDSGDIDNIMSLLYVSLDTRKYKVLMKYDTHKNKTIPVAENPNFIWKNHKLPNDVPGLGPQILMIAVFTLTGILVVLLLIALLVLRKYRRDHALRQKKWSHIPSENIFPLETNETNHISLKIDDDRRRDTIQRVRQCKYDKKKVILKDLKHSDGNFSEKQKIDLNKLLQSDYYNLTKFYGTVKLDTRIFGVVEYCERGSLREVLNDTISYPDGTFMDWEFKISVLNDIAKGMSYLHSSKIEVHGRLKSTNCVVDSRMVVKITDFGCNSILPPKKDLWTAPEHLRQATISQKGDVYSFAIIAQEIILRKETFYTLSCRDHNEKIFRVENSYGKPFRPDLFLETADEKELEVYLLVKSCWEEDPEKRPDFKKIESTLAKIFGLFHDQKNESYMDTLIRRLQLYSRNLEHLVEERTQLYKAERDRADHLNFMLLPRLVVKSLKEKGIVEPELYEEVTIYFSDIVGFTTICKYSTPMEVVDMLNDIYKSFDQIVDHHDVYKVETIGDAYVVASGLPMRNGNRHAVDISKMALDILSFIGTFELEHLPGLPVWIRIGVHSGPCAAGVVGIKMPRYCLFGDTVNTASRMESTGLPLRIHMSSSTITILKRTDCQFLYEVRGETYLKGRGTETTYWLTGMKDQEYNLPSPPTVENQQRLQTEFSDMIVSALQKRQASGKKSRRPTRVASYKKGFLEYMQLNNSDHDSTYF
Assay: Autoradiography of sagittal brain sections after tail vein injection of ^131I-guanylin
Type: in vivo
Protocol: The GUCY2C receptor binds to heat stable enterotoxins, to guanylin and to uroguanylin. Guanylin is a 15 amino acid polypeptide (PGTCEICAYAACTGC, SEQ ID NO:1) that contains a tyrosine residue within the middle of its structure (Bryant et al., Life Sci. 86:760-765 (2010)). Guanylin (R&D Systems, Inc., Minneapolis, Minn.) was radiolabeled with ^131Iodine. 1 mCi of ^131I-guanylin was injected in the tail vein of adult mice and animals were sacrificed 10 minutes post-injection without perfusion.

## ^131I-guanylin: Guanylin, a 15 amino acid polypeptide GUCY2C ligand (R&D Systems), radiolabeled with ^131Iodine (PGTCEICAYAACTGC; ends and bridges not checked; also: 131I radiolabel; UniProt Q02747 101-115, looked up)
Adult mice, 1 mCi tail vein injection, 10 minutes post-injection
  crossing of the blood brain barrier: crossed the blood brain barrier
Adult mice, 1 mCi tail vein injection, sacrificed 10 minutes post-injection without perfusion
  localization of radioactive signal in sagittal brain sections (autoradiography): localized to the ventricles; also recorded: within the brain parenchyma the only “hot spot” was indeed localized to the GUCY2C expression domain; also recorded: strong emission in the ventricles and SN
Adult mouse brain, after tail vein injection, signal specific to TH-expressing mDA neurons
  binding to GUCY2C expressing mDA neurons in the SN: bound to GUCY2C expressing mDA neurons in the SN of the adult brain; also recorded: specific binding to the GUCY2C receptor
